According to publication PMC5546597:

Tests used:
[1] = target: MTCL1 CC1 fragment purified from E. coli (mouse); experiment: cross-linking; purified CC1 fragment (0.52 mg/ml) in PBS, 30 min at 25°C with DST (0.1, 0.3 and 0.9 mg/ml); stopped with 50 mM Tris-HCl pH 7.5
[2] = target: MTCL1 CC1 fragment purified from E. coli (mouse); experiment: SDS-PAGE without heat pretreatment; purified tag-free CC1 fragment in SDS sample buffer with 2% SDS, with or without heat treatment (100°C, 10 min); CBB staining

Q: Which stoichiometry N [1] does the source give for “MTCL1 CC1 fragment purified from E. coli (domain or fragment)” here?
A: 2

Q: And the stoichiometry N [2]?
A: 2
